This note sets out measurements from patent publication US20250115668A1 (BIOCYTOGEN PHARMACEUTICALS BEIJING, published 2025).

In experiment [1] the target is T1, human OX40 expressed on transfected cells (human, UniProt P43489 29-277).
T1 construct: whole, on cells; also called hOX40 on HEK293T-hCTLA4-hOX40 cells; on Jurkat-luc-hOX40
T1 sequence (looked up): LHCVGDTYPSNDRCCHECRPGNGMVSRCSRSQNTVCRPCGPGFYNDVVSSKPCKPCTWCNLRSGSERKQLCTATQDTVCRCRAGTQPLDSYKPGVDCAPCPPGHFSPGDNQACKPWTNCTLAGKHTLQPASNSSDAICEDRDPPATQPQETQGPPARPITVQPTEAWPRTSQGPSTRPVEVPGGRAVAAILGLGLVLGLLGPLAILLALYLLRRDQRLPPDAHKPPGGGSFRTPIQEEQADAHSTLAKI
The experiment is described as follows: flow cytometry (MFI, anti-hIgG-Fc-Alexa Fluor 647) on HEK293T-hCTLA4-hOX40 cells co-expressing human CTLA4 and human OX40.

Experiment [2] deals with T2, Human OX40 protein having a His-Tag (human, UniProt P43489 29-216, limits assumed).
T2 construct: Bought recombinant protein; also called hOX40-His; hOX40; not shown: His tag
T2 sequence (looked up): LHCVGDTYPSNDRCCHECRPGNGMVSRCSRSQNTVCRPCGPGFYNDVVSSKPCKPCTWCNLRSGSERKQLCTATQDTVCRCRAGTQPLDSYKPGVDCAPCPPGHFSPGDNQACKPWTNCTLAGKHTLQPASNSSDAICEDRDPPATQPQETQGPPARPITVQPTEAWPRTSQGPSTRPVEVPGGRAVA
As to the kind of experiment: SPR Biacore 8K, Protein A chip; antibody captured, antigen analyte.

Experiment [3] concerns the target T3, Human CTLA4 protein having a His-Tag (human, UniProt P16410 37-162, limits assumed).
T3 construct: Bought recombinant protein; also called hCTLA4-His; hCTLA4; not shown: His tag
T3 sequence (looked up): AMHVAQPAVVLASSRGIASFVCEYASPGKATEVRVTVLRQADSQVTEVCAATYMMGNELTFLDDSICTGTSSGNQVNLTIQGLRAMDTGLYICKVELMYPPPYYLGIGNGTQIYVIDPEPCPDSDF
The experiment is described as above.

The target in experiment [4] is T4, Cynomolgus/Rhesus macaque OX40/TNFRSF4/CD134 Protein, His Tag (Cynomolgus/Rhesus macaque).
T4 construct: Bought recombinant protein; also called fasOX40-His; monkey OX40
Described as above.

For experiment [5], the target named is T2, Human OX40 protein having a His-Tag. The experiment is described as above. The source holds these as a separate data set.
Experiment [6] deals with T5, Cynomolgus/Rhesus macaque CTLA-4 Protein, His Tag (Cynomolgus/Rhesus macaque).
T5 construct: Bought recombinant protein; also called fasCTLA4-His; FasCTLA4-His
The description is as above.

In experiment [7] the target is T3, Human CTLA4 protein having a His-Tag. The experiment is described as above. The source holds these as a separate data set.

Read-outs that look alike come from different tables or passages of the source.

B1: OX-H7-IgG1 (antibody, V domains shown)
VH: QITLKESGPTLVKPAQTLTLTCTFSGFSLSTSGVGVGWIRQPPGKALEWLALIYWDDDKLYSPSLKSRLTITKDTSKNQVVLAMTNMDPVDTATYYCAHSQLGRDDYWGQGTLVTVSS
VL: EIVLTQSPATLCLSPGERATLSCRASQSVSNYLAWYQQKPGQAPRLLIYAASSRATGIPARFSGSGSGTDFTLTISTLEPEDFAVYYCQQRRDWPPTFGQGTKVEIK
notes: Monoclonal anti-OX40 antibody, IgG1 constant regions; also called 040-H7-IgG1
Usually EC50 (read off the curve) stands for the concentration that produces a half-maximal response. Read a high EC50 (read off the curve) as lower potency in that assay. The Kd is a measure of binding affinity in units of concentration. High values mean lower affinity, low ones higher affinity. In general, koff refers to the rate constant with which the complex falls apart. As a reminder, the kon is a measure of how fast the partners come together. A low value points to slower complex formation. As for B1, the “EC50 (read off the curve)” value in experiment [1] was approximately 5 µg/mL. In experiment [2], binding was put at a Kd of 13.8 nM, the koff stood at 0.00824 s⁻¹ and the kon was 598000 M⁻¹ s⁻¹.

B2: CT-4E12-IgG1 (antibody, V domains shown)
VH: QVQLVESGPGLVKPSETLSLTCAVSGGSISSSSYYWGWIRQPPGKGLEWIGNIYYTGITYYNPSLKSRITISVDTSKNQFSLKLSSVTAADTAVYYCARVGGYSYGYLFDYWGQGTLVTVSS
VL: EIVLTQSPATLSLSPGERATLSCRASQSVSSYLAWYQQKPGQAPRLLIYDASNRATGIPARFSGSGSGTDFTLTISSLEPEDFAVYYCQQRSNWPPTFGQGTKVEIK
notes: Human anti-CTLA4 antibody; IgG1 constant regions
In experiment [3], B2 displayed a Kd of 17 nM, a koff of 0.000422 s⁻¹ and a kon of 24800 M⁻¹ s⁻¹.

B3: CT-5E3-IgG1 (antibody, V domains shown)
VH: QVQLVESGPGLVKPSETLSLTCTVSGGSISSSSYYWGWIRQPPGKGLEWIGSIYYTGNTYYNPSLKSRVTISVDTSKNQFSLKLSSVTAADTAVYYCARVGFSYGHPFDYWGQGTLVTVSS
VL: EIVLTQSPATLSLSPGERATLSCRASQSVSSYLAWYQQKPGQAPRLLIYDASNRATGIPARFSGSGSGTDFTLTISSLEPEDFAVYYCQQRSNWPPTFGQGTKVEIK
notes: as for B2
In experiment [3], B3 returned a Kd of 21.8 nM, a koff of 0.000674 s⁻¹ and a kon of 30900 M⁻¹ s⁻¹.

B4: OX-2F2-IgG1 (antibody, V domains shown)
VH: QVQLVESGGGLVQPGGSLRLSCAASGFTVSNNYMSWVRQAPGKGLEWVSVIYGGGDTYYADSVKGRFTISRDNSQNTLYLQMTSLRADDTAVYYCARGLTIFGVVPFDPWGQGTLVTVSS
VL: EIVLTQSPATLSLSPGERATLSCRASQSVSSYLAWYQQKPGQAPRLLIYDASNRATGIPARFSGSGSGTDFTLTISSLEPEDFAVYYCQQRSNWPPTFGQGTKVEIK
notes: Human anti-OX40 antibody; IgG1 constant regions
Turning to B4, in experiment [2], binding was characterised by a dissociation constant (Kd) of 20 nM, the koff was 0.0217 s⁻¹ and the kon was found to be 1.09e+06 M⁻¹ s⁻¹.

B5: CT-5E3-OX-2F2-IgG1-SI (bispecific antibody, V domains shown)
VH 1: QVQLVESGPGLVKPSETLSLTCTVSGGSISSSSYYWGWIRQPPGKGLEWIGSIYYTGNTYYNPSLKSRVTISVDTSKNQFSLKLSSVTAADTAVYYCARVGFSYGHPFDYWGQGTLVTVSS
VH 2: QVQLVESGGGLVQPGGSLRLSCAASGFTVSNNYMSWVRQAPGKGLEWVSVIYGGGDTYYADSVKGRFTISRDNSQNTLYLQMTSLRADDTAVYYCARGLTIFGVVPFDPWGQGTLVTVSS
VL: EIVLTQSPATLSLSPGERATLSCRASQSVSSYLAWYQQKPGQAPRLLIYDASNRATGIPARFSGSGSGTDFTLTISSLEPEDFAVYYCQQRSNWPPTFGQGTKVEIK
notes: 1+1 knobs-into-holes human IgG1 with common light chain; SI mutations (S239D, I332E, EU)
B5: the Kd in experiment [4] was found to be 4.91 nM; in experiment [5], 50.2 nM; in experiment [6] it was 8.36 nM; in experiment [7], 27.8 nM. Moreover, the koff came out at 0.000205 s⁻¹ in experiment [4], 0.0136 s⁻¹ in experiment [5], 0.00105 s⁻¹ in experiment [6] and 0.000909 s⁻¹ in experiment [7]. The kon in experiment [4] was 41800 M⁻¹ s⁻¹; in experiment [5], 270000 M⁻¹ s⁻¹; in experiment [6], 126000 M⁻¹ s⁻¹; in experiment [7], 32700 M⁻¹ s⁻¹.

B6: OX-1F9-IgG1 (antibody, V domains shown)
VH: EVQLVESGGGLVQPGGSLRLSCAASGFTFSNYEMNWVRQAPGKGLEWISYIGSSGSTIYYADSVKGRFTISRDNAKNSLYLQMNSLRAEDTAVYYCAVDYIFDYWGQGTLVTVSS
VL: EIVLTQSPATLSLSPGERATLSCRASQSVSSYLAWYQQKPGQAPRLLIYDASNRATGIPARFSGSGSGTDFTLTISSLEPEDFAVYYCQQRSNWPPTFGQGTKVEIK
notes: Human anti-OX40 antibody from RenLite mice
As for B6, in experiment [2], the Kd amounted to 22.6 nM, the koff was found to be 0.00744 s⁻¹ and the kon is 330000 M⁻¹ s⁻¹.

B7: OX-2C11-IgG1 (antibody, V domains shown)
VH: EVQLVQSGGGLVKPGGSLRLSCAASGFTFSDSYMSWIRQAPGKGLEWISYISSSISYTKYADSVKGRFTISRDNAKNSLYLEMNSLRAEDTAVYYCARDYYDSGNYYYYFDYWGQGTLVTVSS
VL: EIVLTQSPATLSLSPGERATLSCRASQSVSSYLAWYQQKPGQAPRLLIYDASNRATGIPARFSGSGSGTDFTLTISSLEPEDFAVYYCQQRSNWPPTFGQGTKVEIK
notes: as for B4
In experiment [2], B7 showed a Kd of 7.59 nM, a koff of 0.000412 s⁻¹ and a kon of 54400 M⁻¹ s⁻¹.

B8: OX-2C11-CT-4E12-IgG1-SI (bispecific antibody, V domains shown)
VH 1: EVQLVQSGGGLVKPGGSLRLSCAASGFTFSDSYMSWIRQAPGKGLEWISYISSSISYTKYADSVKGRFTISRDNAKNSLYLEMNSLRAEDTAVYYCARDYYDSGNYYYYFDYWGQGTLVTVSS
VH 2: QVQLVESGPGLVKPSETLSLTCAVSGGSISSSSYYWGWIRQPPGKGLEWIGNIYYTGITYYNPSLKSRITISVDTSKNQFSLKLSSVTAADTAVYYCARVGGYSYGYLFDYWGQGTLVTVSS
VL: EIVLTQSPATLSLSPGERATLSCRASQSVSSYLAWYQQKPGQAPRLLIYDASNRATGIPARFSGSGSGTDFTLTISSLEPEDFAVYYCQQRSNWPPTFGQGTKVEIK
notes: 1+1 knobs-into-holes human IgG1 with common light chain; SI mutations (S239D, I332E, EU) in Fc
For B8, the Kd was found to be 37 nM in experiment [4], 16.7 nM in experiment [5], 11.2 nM in experiment [6] and 10.2 nM in experiment [7]. In addition, the koff in experiment [4] amounted to 0.000685 s⁻¹; in experiment [5], 0.000626 s⁻¹; in experiment [6], 0.000422 s⁻¹; in experiment [7] it was 0.00023 s⁻¹. The kon in experiment [4] came to 18500 M⁻¹ s⁻¹; in experiment [5] it was 37500 M⁻¹ s⁻¹; in experiment [6], 37800 M⁻¹ s⁻¹; in experiment [7] it was 22400 M⁻¹ s⁻¹.

B9: CT-5F9-IgG1 (antibody, V domains shown)
VH: QVQLVESGPGLLKPSETLSLTCTVSGGSISSSSSYWGWIRQPPGKGLEWIGSIYYSGITYYNPSLKSRVTISVDTSKNQFSLKVSSVTAADTAVYYCARLNWNQVFDYWGQGTLVTVSS
VL: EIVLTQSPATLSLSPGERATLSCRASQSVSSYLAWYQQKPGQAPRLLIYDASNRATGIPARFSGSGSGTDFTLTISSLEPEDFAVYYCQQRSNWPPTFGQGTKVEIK
notes: as for B2
Take B9: in experiment [3], the Kd came out at 7.48 nM, the koff came out at 0.00123 s⁻¹ and the kon is 164000 M⁻¹ s⁻¹.

B10: OX-2F5-CT-3D2-IgG1-SI (bispecific antibody, V domains shown)
VH 1: QVQLVESGPTLVKPTQTLTLTCTFSGFSLSTSGVGVGWIRQSPGKALEWLSLIYWDDDKRYNPSLKSRLTVTKDTSKNQVVLAMTNMDPVDTATYFCAHRAHSSSSSDYWGQGTLVTVSS
VH 2: QVQLVESGPGLVKPSETLSLTCTVSGDSIRSSHYYWGWIRQPPGKGLEWIGSIYFNGITYYSPSLKSRVTISVDTSKNQFSLKLTSVTAADTAVFYCARHNNYYDSSGYWYYFDYWGQGTLVTVSS
VL: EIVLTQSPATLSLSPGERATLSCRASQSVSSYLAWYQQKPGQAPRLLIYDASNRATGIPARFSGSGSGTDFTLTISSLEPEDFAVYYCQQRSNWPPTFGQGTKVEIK
notes: as for B5
In experiment [4], B10 had an equilibrium dissociation constant (Kd) of 30.4 nM, a koff of 0.0257 s⁻¹ and a kon of 845000 M⁻¹ s⁻¹. Besides, in experiment [5], the Kd worked out at 69.6 nM, the koff came to 0.00947 s⁻¹ and the kon is 136000 M⁻¹ s⁻¹.

B11: OX-1F9-CT-3D2-IgG1-SI (bispecific antibody, V domains shown)
VH 1: EVQLVESGGGLVQPGGSLRLSCAASGFTFSNYEMNWVRQAPGKGLEWISYIGSSGSTIYYADSVKGRFTISRDNAKNSLYLQMNSLRAEDTAVYYCAVDYIFDYWGQGTLVTVSS
VH 2: QVQLVESGPGLVKPSETLSLTCTVSGDSIRSSHYYWGWIRQPPGKGLEWIGSIYFNGITYYSPSLKSRVTISVDTSKNQFSLKLTSVTAADTAVFYCARHNNYYDSSGYWYYFDYWGQGTLVTVSS
VL: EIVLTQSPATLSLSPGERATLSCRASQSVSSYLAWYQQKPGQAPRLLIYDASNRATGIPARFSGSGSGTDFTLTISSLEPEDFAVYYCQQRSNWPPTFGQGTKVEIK
notes: as for B5
On to B11, for which, in experiment [4], the Kd was 2.48 nM, the koff turned out to be 0.000371 s⁻¹ and the kon amounted to 150000 M⁻¹ s⁻¹. For the same molecule, in experiment [5], the Kd came out at 22.8 nM, the koff is 0.00698 s⁻¹ and the kon was 306000 M⁻¹ s⁻¹.

B12: OX-2F5-IgG1 (antibody, V domains shown)
VH: QVQLVESGPTLVKPTQTLTLTCTFSGFSLSTSGVGVGWIRQSPGKALEWLSLIYWDDDKRYNPSLKSRLTVTKDTSKNQVVLAMTNMDPVDTATYFCAHRAHSSSSSDYWGQGTLVTVSS
VL: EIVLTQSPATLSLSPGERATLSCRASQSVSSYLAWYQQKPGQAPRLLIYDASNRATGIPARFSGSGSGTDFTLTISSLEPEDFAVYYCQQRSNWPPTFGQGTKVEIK
notes: as for B4
In experiment [2], B12 returned a Kd of 45.6 nM, a koff of 0.0343 s⁻¹ and a kon of 753000 M⁻¹ s⁻¹.

B13: OX-2F2-CT-3D2-IgG1-SI (bispecific antibody, V domains shown)
VH 1: QVQLVESGGGLVQPGGSLRLSCAASGFTVSNNYMSWVRQAPGKGLEWVSVIYGGGDTYYADSVKGRFTISRDNSQNTLYLQMTSLRADDTAVYYCARGLTIFGVVPFDPWGQGTLVTVSS
VH 2: QVQLVESGPGLVKPSETLSLTCTVSGDSIRSSHYYWGWIRQPPGKGLEWIGSIYFNGITYYSPSLKSRVTISVDTSKNQFSLKLTSVTAADTAVFYCARHNNYYDSSGYWYYFDYWGQGTLVTVSS
VL: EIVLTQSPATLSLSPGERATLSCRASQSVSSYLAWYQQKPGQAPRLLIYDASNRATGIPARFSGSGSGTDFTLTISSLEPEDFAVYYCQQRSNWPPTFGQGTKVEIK
notes: as for B5
Consider B13, for which, in experiment [6], the Kd came to 4.77 nM, the koff came to 0.000612 s⁻¹ and the kon was determined as 128000 M⁻¹ s⁻¹. In experiment [7], the Kd worked out at 14.2 nM, the koff is 0.000774 s⁻¹ and the kon came out at 54600 M⁻¹ s⁻¹.
